Residue numbers refer to the chain shown, from its start. Non-standard residues stand in square brackets, D forms with d. No end group written: not given here. fluorescein = fluorescein fluorescent label on the N-terminus; C(fluorescein) = cysteine carrying a fluorescein label; Nle = CCCC[C@H](N)C(=O)O
Experiments:
[1] = biological target: Fluorescein-LmPBPA11-20 Arg12Ala (L. monocytogenes EGD-e); test: fluorescence polarisation
[2] = biological target: Fluorescein-LmPBPA11-20 Arg8Ala (L. monocytogenes EGD-e); test: fluorescence polarisation
[3] = biological target: Fluorescein-LmPBPA11-20 Arg8AlaSer16Arg (L. monocytogenes EGD-e); test: fluorescence polarisation
[4] = biological target: Fluorescein-LmPBPA11-20 wildtype (L. monocytogenes EGD-e); test: fluorescence polarisation
[5] = biological target: TAMRA-SpPBP2a23-45 wildtype (S. pneumoniae R6); test: fluorescence polarisation
[6] = biological target: TAMRA-SpPBP2a23-45 Arg33Lys (S. pneumoniae R6); test: fluorescence polarisation
[7] = biological target: TAMRA-SpPBP2a23-45 Arg31LysArg33Lys (S. pneumoniae R6); test: fluorescence polarisation
[8] = biological target: TAMRA-SpPBP2a23-45 Arg36Ala (S. pneumoniae R6); test: fluorescence polarisation
[9] = biological target: TAMRA-SpPBP2a23-45 Ser32Ala (S. pneumoniae R6); test: fluorescence polarisation
[10] = biological target: Fluorescein-SpPBP2x1-29 (S. pneumoniae R6); test: fluorescence polarisation
[11] = biological target: TAMRA-SpPBP2a23-45 Arg33Ala (S. pneumoniae R6); test: fluorescence polarisation
[12] = biological target: TAMRA-SpPBP2a23-45 Arg31Lys (S. pneumoniae R6); test: fluorescence polarisation
[13] = biological target: LmPBPA1_(1-20)^Arg8Ala (L. monocytogenes EGD-e); test: fluorescence polarisation
[14] = biological target: LmPBPA1_(1-20)^Tyr11Ala (L. monocytogenes EGD-e); test: fluorescence polarisation
[15] = biological target: LmPBPA1_(1-20)^Arg12Ala (L. monocytogenes EGD-e); test: fluorescence polarisation
[16] = biological target: Q10P-mutated LmPBPA1 peptide (taken as LmPBPA1_(1-20)^Gln10Pro) (L. monocytogenes EGD-e); test: fluorescence polarisation
[17] = biological target: LmPBPA1_(1-20)^Arg8Ala,Ser16Arg (L. monocytogenes EGD-e); test: fluorescence polarisation
[18] = biological target: T1, BsYrrS_(1-18), fluorescein-labelled (B. subtilis, UniProt O32031 1-18, also: fluorescein label, position not given here); test: fluorescence polarisation; GpsB protein titrated into fluorescently labelled peptide; 10 mM Tris.HCl pH 8.0, 250 mM NaCl, 0.1% reduced Triton X-100; fit to a 1:1 interaction model; conditions: both partners purified
T1 construct: YrrS, Bacillus subtilis, residues 1-18; also called entire cytoplasmic mini-domain of BsYrrS
T1 peptide (looked up): MSNNQSRYENRDKRRKAN

[19] = biological target: T2, BsPBP1_(1-32), TAMRA-labelled at position 16 (B. subtilis, UniProt P39793 1-32, Ser16Cys, TAMRA (maleimide) at position 16); test: as above; conditions: both partners purified
T2 construct: PBP1, Bacillus subtilis, residues 1-32; also called BsPBPA1_(1-32); BsPBP1A_(1-32); source: E. coli, His-tagged MBP fusion purified (Ni-NTA), labelled, TEV-cleaved, ultrafiltration
T2 peptide (looked up): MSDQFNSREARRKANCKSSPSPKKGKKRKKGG

[20] = biological target: T3, BsYpbE_(1-21), fluorescein-labelled (B. subtilis, UniProt P50731 1-21, fluorescein (position not given)); test: fluorescence polarisation; conditions: both partners purified
T3 construct: also called 21-residue fragment of the cytoplasmic domain of BsYpbE; source: synthetic peptide
T3 peptide: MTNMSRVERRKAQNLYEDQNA

BsGpsB1-68 Asp31Ala [21] = biological target: T4, BsGpsB1-68 Asp31Ala (B. subtilis, UniProt P0CI74 1-68, Asp31Ala); test: fluorescence polarisation; conditions: both partners purified
T4 construct: GpsB, Bacillus subtilis, residues 1-68 (N-terminal domain); also called BsGpsB1-68 D31A; source: E. coli BL21(DE3), purified (Ni-NTA, thrombin removal of the His6-tag, SEC); not shown: His6, N-terminal, cleaved
T4 sequence (looked up): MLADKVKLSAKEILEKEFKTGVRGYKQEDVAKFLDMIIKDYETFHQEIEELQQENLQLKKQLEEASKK

BsGpsB1-68 Tyr25Phe [22] = biological target: T5, BsGpsB1-68 Tyr25Phe (B. subtilis, UniProt P0CI74 1-68, Tyr25Phe); test: fluorescence polarisation; conditions: both partners purified
T5 construct: GpsB, Bacillus subtilis, residues 1-68 (N-terminal domain); also called BsGpsB1-68 Y25F; source: E. coli BL21(DE3), purified (Ni-NTA, thrombin removal of the His6-tag, SEC); not shown: His6, N-terminal, cleaved
T5 sequence (looked up): T4 sequence (looked up) with Y25F, A31D

BsGpsB1-68 Asp31Ala [23] = biological target: T4, BsGpsB1-68 Asp31Ala; test: fluorescence polarisation; GpsB protein titrated into TAMRA- or fluorescein-labelled peptide; 10 mM Tris.HCl pH 8.0, 250 mM NaCl, 0.1% reduced Triton X-100; all data fitted to a 1:1 interaction model, Kd ± standard error; conditions: both partners purified
BsGpsB1-68 Tyr25Phe [24] = biological target: T5, BsGpsB1-68 Tyr25Phe; test: as above; conditions: both partners purified
BsGpsB1-68 Glu17Ala = biological target: T6, BsGpsB1-68 Glu17Ala (B. subtilis, UniProt P0CI74 1-68, Glu17Ala); test: as above; conditions: both partners purified
T6 construct: GpsB, Bacillus subtilis, residues 1-68 (N-terminal domain); also called BsGpsB1-68 E17A; source: E. coli BL21(DE3), purified (Ni-NTA, thrombin removal of the His6-tag, SEC); not shown: His6, N-terminal, cleaved
T6 sequence (looked up): T4 sequence (looked up) with E17A, A31D

BsGpsB [25] = biological target: T7, BsGpsB (B. subtilis, UniProt P0CI74 1-98); test: as above; conditions: both partners purified
T7 construct: GpsB, Bacillus subtilis, full-length protein; purification not described here; also called full-length B. subtilis GpsB
T7 sequence (looked up): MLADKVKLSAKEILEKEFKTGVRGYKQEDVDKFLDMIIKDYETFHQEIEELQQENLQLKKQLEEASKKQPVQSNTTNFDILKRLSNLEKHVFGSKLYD

BsGpsB1-68 Asp35Ala = biological target: T8, BsGpsB1-68 Asp35Ala (B. subtilis, UniProt P0CI74 1-68, Asp35Ala); test: as above; conditions: both partners purified
T8 construct: GpsB, Bacillus subtilis, residues 1-68 (N-terminal domain); also called BsGpsB1-68 D35A; source: E. coli BL21(DE3), purified (Ni-NTA, thrombin removal of the His6-tag, SEC); not shown: His6, N-terminal, cleaved
T8 sequence (looked up): T4 sequence (looked up) with A31D, D35A

BsGpsB1-68 = biological target: T9, BsGpsB1-68 (B. subtilis, UniProt P0CI74 1-68); test: as above; conditions: both partners purified
T9 construct: GpsB, Bacillus subtilis, residues 1-68 (N-terminal domain); also called N-terminal domain of B. subtilis GpsB; wildtype BsGpsB1-68; source: E. coli BL21(DE3), purified (Ni-NTA, thrombin removal of the His6-tag, SEC); not shown: His6, N-terminal, cleaved
T9 sequence (looked up): T4 sequence (looked up) with A31D

SpGpsB_(1-63) = biological target: T10, SpGpsB_(1-63) (S. pneumoniae R6, UniProt Q8DR57 1-63); test: fluorescence polarisation; conditions: both partners purified
T10 construct: GpsB, Streptococcus pneumoniae R6, residues 1-63 (stop codon in place of Pro64); also called N-terminal domain of SpGpsB; wildtype SpGpsB_(1-63); source: E. coli, purified (Ni-NTA, thrombin, ammonium sulphate precipitation, gel filtration)
T10 sequence (looked up): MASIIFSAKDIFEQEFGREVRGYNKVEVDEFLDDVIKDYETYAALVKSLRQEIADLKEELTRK

BsGpsB [26] = biological target: T11, BsGpsB (Bacillus subtilis, UniProt P0CI74); test: BACTH interaction with BsGpsB; type: cell-based; conditions: E. coli BTH101, nutrient agar, 30 °C
T11 construct: new FP data concerning full length BsGpsB have now been added to; made in house; host or cells: E. coli BL21(DE3)

Q: How did the Kd [1] turn out when “BsGpsB1-68 Lys32Glu (from UniProt P0CI74 1-68) (domain or fragment)” was run?
A: 800 µM

Q: And the Kd [2]?
A: > 3000 µM

Q: What about the Kd [3] of the same molecule?
A: > 2000 µM

Q: And the Kd [4]?
A: 190 µM

Q: Which Kd [5] does the source give for “SpGpsB1-63 Asp33Ala (domain or fragment)” here?
A: > 3000 µM

Q: Which results are given for SpGpsB1-63 (domain or fragment)?
A: Kd [6]: 360 µM; Kd [7]: > 2000 µM; Kd [8]: 270 µM; Kd [9]: 210 µM; Kd [10]: 370 µM; Kd [11]: 530 µM; Kd [12]: 150 µM

B1: BsGpsB_(1-68)^Lys32Glu (domain or fragment)
chain: T4 sequence (looked up) with A31D, K32E
Q: B1 was tested. Which fold reduction in affinity against wild type [13] did it give?
A: > 15 fold

Q: And the fold reduction in affinity against wild type [14]?
A: 2 fold

Q: And the fold reduction in affinity against wild type [15]?
A: 4 fold

Q: What about the fold reduction in affinity against wild type [16] of the same molecule?
A: > 7 fold

Q: And the fold weaker affinity than wild type [17]?
A: > 10 fold

B2: BsGpsB_(1-68)^Tyr25Phe (domain or fragment, B. subtilis, UniProt P0CI74 1-68, looked up)
chain: T4 sequence (looked up) with Y25F, A31D
notes: GpsB, Bacillus subtilis, residues 1-68; the making of this mutant is not described in the methods; also called BsGpsB^Tyr25Phe; source: E. coli, purified (Ni-NTA, thrombin, size exclusion)
Q: Which results are given for B2?
A: fold reduction in affinity against wild type [18]: 7 fold; fold reduction in affinity against wild type [19]: > 8 fold; fold reduction in affinity against wild type [20]: ~40 fold

B3: BsGpsB_(1-68)^Asp31Ala (domain or fragment, B. subtilis, UniProt P0CI74 1-68, looked up)
chain: T4 sequence (looked up)
notes: GpsB, Bacillus subtilis, residues 1-68; also called BsGpsB^Asp31Ala; source: E. coli, purified (Ni-NTA, thrombin, size exclusion)
Q: Which “fold reduction in affinity against wild type” value (“fold reduction in affinity” for short) [18] does the source give for B3 here?
A: 7 fold

Q: And the “fold reduction in affinity” value [19]?
A: > 8 fold

Q: What about the “fold reduction in affinity” value [20] of the same molecule?
A: ~40 fold

Q: Which Kd (BsGpsB1-68 Asp31Ala [21]) does the source give for fluorescein-[Nle]TN[Nle]SRVERRKAQNLYEDQNA [Fluoroescein-BsYpbE1-21] here?
A: > 500 µM

Q: What about the Kd (BsGpsB1-68 Tyr25Phe [22]) of the same molecule?
A: > 500 µM

Q: How did the Kd (BsGpsB1-68 Asp31Ala [23]) turn out when MSNNQSRYENRDKRRKAN-{C(fluorescein)} [Fluoroescein-BsYrrS1-18] was run?
A: > 3000 µM

Q: What about the Kd (BsGpsB1-68 Tyr25Phe [24]) of the same molecule?
A: > 3000 µM

B4: TAMRA-BsPBP11-32 wildtype (peptide)
peptide: GSMADQFNSREARRKANC(TAMRA‑maleimide)KSSPSPKKGKKRKKGG
notes: PBP1 (ponA), Bacillus subtilis, residues 1-32, cytoplasmic mini-domain; also called TAMRA-labelled BsPBP1 1-32 (Ser16Cys); 16-labelled peptide
Q: B4 was tested. Which Kd (BsGpsB1-68 Glu17Ala) did it give?
A: > 1300 µM

Q: And the Kd (BsGpsB [25])?
A: 160 µM

Q: And the Kd (BsGpsB1-68 Asp31Ala [23])?
A: > 1900 µM

Q: And the Kd (BsGpsB1-68 Tyr25Phe [24])?
A: > 2000 µM

Q: What about the Kd (BsGpsB1-68 Asp35Ala) of the same molecule?
A: > 2000 µM

Q: And the Kd (BsGpsB1-68)?
A: 120 µM

B5: SpPBP2a_(23-45), TAMRA-labelled (peptide)
peptide: DSDSTILRRSRSDRKKLAQVCPI
modifications: also: TAMRA (maleimide) label, site not given here
notes: source: E. coli, His-tagged MBP fusion purified (Ni-NTA), labelled, TEV-cleaved, ultrafiltration
Q: B5 was tested. Which Kd (SpGpsB_(1-63)) did it give?
A: 80 µM

B6: SpPBP2x_(1-29), fluorescently labelled (peptide)
peptide: GSGMKWTKRVIRYATKNRKSPAENRRRVGKSLCS
modifications: also: TAMRA or fluorescein maleimide label, which one and site not given here
notes: as for B5
Q: Does B6 bind (SpGpsB_(1-63))?
A: binds

B7: BsYrrS: B. subtilis YrrS (protein, UniProt O32031 1-233, looked up)
Uncharacterized membrane …: MSNNQSRYENRDKRRKANLVLNILIAIVSILIVVVAANLFINSPSSKDVSKDSETAQKQESPASGKTEKKSDEDIKDSKKDTSDSEKDSEKSSDSDSKKDDSSSKKDDSDSDSSSDSAGDGLKDAKVTEGGSSSDVEKTYENPDWKAVGTEQTGEHAATYDSSSQDWAEMLKAISYATGVSTDNMTVLWLGNNGSPQDAKGKILDKATGNKYQVTITWVDEKGWKPTKVEKLK
Q: Which “BACTH interaction with BsGpsB” value (BsGpsB [26]) does the source give for B7 here?
A: detected

B8: BsYpbE: B. subtilis YpbE, LysM-domain membrane protein (protein, UniProt P50731 1-240, looked up)
Uncharacterized protein YpbE: MTNMSRVERRKAQNLYEDQNAALADDYVDDGESLPTRQSVKNQREQKKKQGKTKTPLFTVLAVIFVFVPVIVLVTLFYLKSHPDNHDDYEDVFIDSSQSKYEVVPKSEDKNDTADTKETALQKESKKEPEDSKPKEQTAADKKQTAVAEKEDSPNKEEATAAAASSSQSTVQQQEQPAEPVQNVPNRVVKHTVQKKETLYRISMKYYKSRTGEEKIRAYNHLNGNDVYTGQVLDIPLMDE
Q: Which “BACTH interaction with BsGpsB” value (BsGpsB [26]) does the source give for B8 here?
A: detected

Reference: PMC6335420, “The cell cycle regulator GpsB functions as cytosolic adaptor for multiple cell wall enzymes” (Nature Communications, 2019)
